The values that follow come from US20230374147A1 (HUMMINGBIRD BIOSCIENCE PTE, published 2023).

Assay [1] deals with T1, His-tagged human BCMA (Acro Biosystems, Cat. #BCA-H522y) (human, UniProt Q02223 1-54).
T1 construct: also called huBCMA; P1; not shown: His tag
T1 sequence: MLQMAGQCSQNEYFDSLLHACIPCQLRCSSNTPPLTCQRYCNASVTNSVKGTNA
Description: ELISA, hybridoma supernatant, coated His-tagged antigen. A general note: In an ELISA, binding on a coated surface is turned into a signal by an enzyme label.

In assay [2] the target is T2, His-tagged cynomolgous macaque BCMA (Acro Biosystems, BCA-C52H7) (cynomolgus macaque, UniProt Q02223 1-54 (human entry)).
T2 construct: Bought protein; also called cyno BCMA; CyBCMA; not shown: His tag
The assay is described as above.

Assay [3] deals with T3, His-tagged mouse BCMA (Acro Biosystems, BCA-M52H3) (mouse, UniProt O88472 1-49).
T3 construct: Bought protein; not shown: His tag
T3 chain: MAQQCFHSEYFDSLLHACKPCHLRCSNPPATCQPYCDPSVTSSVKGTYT
The description is as above.

The target of assay [4] is T1, His-tagged human BCMA (Acro Biosystems, …). Kind of assay: ELISA, IgG purified from hybridoma supernatant, coated His-tagged antigen.
The target in assay [5] is T4, human BCMA expressed on cells (human, UniProt Q02223 1-184).
T4 construct: the cell line is named under assay; also called wildtype human BCMA
T4 sequence: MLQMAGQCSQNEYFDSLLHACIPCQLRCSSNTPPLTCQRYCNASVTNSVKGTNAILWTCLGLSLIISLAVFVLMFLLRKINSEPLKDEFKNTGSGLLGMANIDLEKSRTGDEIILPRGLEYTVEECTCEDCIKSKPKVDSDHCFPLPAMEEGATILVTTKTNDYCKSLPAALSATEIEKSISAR
Description: flow cytometry, hybridoma supernatant, HEK293T cells stably expressing human BCMA. For orientation: A flow cytometer gives signals particle by particle.

In assay [6] the target is T5, Human HER3-His (Sino Biological, 10201-H08H) (human, UniProt P21860 20-643).
T5 construct: Specificity control; also called Human HERS-His
Kind of assay: ELISA, coated His-tagged antigen.

For assay [7], the target named is T2, His-tagged cynomolgous macaque BCMA …. Description: ELISA, coated Cyno BCMA-His.
Assay [8] addresses T6, Cyno TACI-His (Sino Biological, 90976-C08H) (cynomolgus macaque, UniProt G7PTR7 1-165).
T6 construct: Bought protein; also called cynomolgous macaque TACI; CyTACI
T6 sequence: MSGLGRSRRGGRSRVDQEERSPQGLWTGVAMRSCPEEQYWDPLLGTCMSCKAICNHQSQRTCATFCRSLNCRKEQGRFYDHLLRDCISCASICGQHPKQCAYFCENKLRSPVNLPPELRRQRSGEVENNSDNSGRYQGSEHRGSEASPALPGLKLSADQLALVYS
Description: ELISA, coated Cyno TACI-His.

For assay [9], the target named is T7, Human BCMA-His (Sino Biological, 10620-H08H) (human, UniProt Q02223 1-54).
T7 construct: not shown: His tag
T7 sequence: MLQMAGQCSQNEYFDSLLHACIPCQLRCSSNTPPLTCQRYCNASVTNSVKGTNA
Kind of assay: ELISA, coated Human BCMA-His.

Assay [10] deals with T8, recombinant his-tagged human TACI (Sinobiological cat #11937-H08H) (human, UniProt O14836 1-165).
T8 construct: Bought protein; also called Human TACI-His; huTACI; not shown: His tag
T8 sequence: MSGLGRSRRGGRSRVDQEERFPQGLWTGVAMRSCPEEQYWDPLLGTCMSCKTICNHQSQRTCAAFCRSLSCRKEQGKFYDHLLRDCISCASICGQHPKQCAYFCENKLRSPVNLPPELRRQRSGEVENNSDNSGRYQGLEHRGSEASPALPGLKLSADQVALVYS
Kind of assay: ELISA, coated Human TACI-His.

The target in assay [11] is T4, human BCMA expressed on cells. Kind of assay: flow cytometry, H929 cells (BCMA+).
Assay [12] concerns the target T1, His-tagged human BCMA (Acro Biosystems, …). Kind of assay: BLI, IgG on HFC tip, His-tagged human BCMA 300-37.5 nM.
The target in assay [13] is T8, recombinant his-tagged human TACI …. Description: BLI, IgG on HFC tip, His-tagged human TACI 300-37.5 nM. (In general: In BLI a coated tip is dipped into the sample, and binding shifts an interference pattern.)
The target of assay [14] is T2, His-tagged cynomolgous macaque BCMA …. Kind of assay: BLI, IgG on HFC tip, His-tagged cynomolgus BCMA 300-37.5 nM.
Assay [15] addresses T4, human BCMA expressed on cells. Description: flow cytometry, fixed RPMI 8226 cells (BCMA+, TACI+: the cells carry both targets).

B1: 539-SP2-H3 (antibody produced by the hybridoma) (antibody, V domains shown)
VH: EVQLQQSGPELVKPGASVKMSCKASGYTFTSYVIHWVKQKPGQGLEWIGYVLPYNDVIKYNEKFKGKATLTSDKSSSTAYMDLSSLTSEDSAVYYCARWGDFDEGIWFPYWGQGTLVTVSA
VL: DVLMTQTPLSLPVSLGDHASVSCRSSQSIVHTDGNTYLEWYLQKPGQSPKLLIYKVSNRFSGVPDRFSGSGSGTDFTLKISRVEAEDLGVYYCFQGSHVPWTFGGGTKLEIK
notes: Mouse antibody from B cell hybridoma (culture supernatant or IgG purified from it)
For orientation: EC50 means the midpoint of the concentration-response curve. For B1, the “ELISA values (OD 450 nm)” value in assay [1] is 0.813 OD; in [2] it was 0.669 OD; in assay [3], 0.542 OD. In assay [4], the EC50 amounted to 0.152 µg/mL. Besides, the “% Parent (percent positive cells)” value in assay [5] stood at 74.3%.

B2: 552-LN2-E6 (antibody produced by the hybridoma) (antibody, V domains shown)
VH: QIQLVQSGPELKKPGETVKISCMASGYTFTDYSVRWVKQAPGKGLEWMGWINTETGEPTYADDFKGRFAFSLETSASTAYLQINNLKNEDTATYFCAISYYYALDYWGHGTSVTVSS
VL: DIVLTQSPASLTVSLGQRATISCRASKSVSTSVYSFLHWYQQKPGQPPKLLIYLASNLESGVPARFSGSGSGTDFTLNIHPVEEEDAATYYCQHSRELPRTFGGGTKLEIK
notes: as for B1
In the case of B2, the “ELISA values (OD 450 nm)” value amounted to 0.832 OD in assay [1], 0.729 OD in assay [2] and 0.002 OD in assay [3]. Besides, the EC50 in assay [4] came out at 0.0505 µg/mL. Besides, the “% Parent (percent positive cells)” value in [5] is 60.8%.

B3: 552-LN2-F8 (antibody produced by the hybridoma) (antibody, V domains shown)
VH: QIQLVQSGPELKKPGETVKISCKASGYTFTDYTMYWVKQAPGKGLKWMGWINTETGEPTYADDFKGRFVFSLETSANTAYLQINNLKNEDTATYFCAISYYYGMDYWGQGTSVTVTS
VL: DIILTQSPASLAVSLGQRATITCRASKSVSTSGYNFVYWYQQKPGQPPKLLIYLASNLESGVPARFSGSGSGTDFTLNIHPVEEEDAATYYCQHSRELPRTFGGGTKLEIK
notes: as for B1
Consider B3, for which the “ELISA values (OD 450 nm)” value turned out to be 0.884 OD in assay [1], 1.83 OD in [2] and 0.001 OD in [3]. Besides, a half-maximal effect in assay [4] (EC50) was put at 0.0585 µg/mL. For the same molecule, the “% Parent (percent positive cells)” value in assay [5] came to 73.8%.

B4: 552-LN1-F4 (antibody produced by the hybridoma) (antibody, V domains shown)
VH: QIQLVQSGPELKKPGETVKISCMASGYTFTDYSVRWVKQAPGKGLEWMGWINTETGEPTYAHDFKGRFAFSLETSASTAYLQINNLKDEDTSTYFCAISYYYALDYWGHGTSVTVSS
VL: DIVLTQSPASLTVSLGQRATISCRASKSVSTSGYNFLHWYQQKPGQPPKLLIYLASNLESGAPARFSGSGSGTDFTLNIHPVEEEDAATYYCQHSRELPRTFGGGTKLEIK
notes: as for B1
For the molecule B4, the “ELISA values (OD 450 nm)” value in [1] turned out to be 0.845 OD; in assay [2], 1.89 OD; in [3], 0.006 OD. For the same molecule, the EC50 in assay [4] came out at 0.037 µg/mL. For the same molecule, the “% Parent (percent positive cells)” value in assay [5] was determined as 66.4%.

B5: 552-LN1-E9 (antibody produced by the hybridoma) (antibody, V domains shown)
VH: QIQLVQSGPELKKPGETVKISCKASGYTFTDYSIYWVKQAPGKGLKWMGWINTETGEPTYADDFKGRFAFSLETSASSAYLQINTLKNEDTATYFCSISYYYAMDYWGQGTSVTVSS
VL: DIVLTQSPASLAVSLGQRATISCRASKSVSTSGYSFLHWYQQKPGQPPKLLIYFASNLESGVPARFSGSGSGTDFTLNIHPVEEEDAATYYCQHSRELPRTFGGGTKLEIK
notes: as for B1
Consider B5, for which the “ELISA values (OD 450 nm)” value in [1] was 0.836 OD; in [2] it was 2.07 OD; in assay [3], 0.017 OD. In [4], the EC50 stood at 0.071 µg/mL. The “% Parent (percent positive cells)” value in assay [5] turned out to be 75.4%.

B6: 1C8-403 hIgG1 (antibody, V domains shown)
VH: QVQLVQSGAEVKKPGASVKVSCKASGYTFTNYVMHWVKQKPGQGLEWMGYILPYNDGTKYAQKFQGKVTMTSDKSTSTVYMELSSLTSEDTAVYYCARYDWEGSFDYWGQGTLVTVSS
VL: DIQMTQSPSSLSASVGDRVTITCRASSDISNYLNWYQQKPGKAPKLLMCYTSRLHSGVPSRFSGSGSGTDFTLTISSLEQEDFATYYCQQGNTFPPTFGGGTKVEIKR
notes: also called [91]; hu1C8-403
As usually defined, the Kd is the free concentration of one partner at which half of the binding sites on the other are occupied at equilibrium, for simple one-to-one binding. For orientation: koff means the rate constant with which the complex falls apart. As a reminder, the kon is the second-order rate constant of association. Take B6: in assay [6], the binding result was “no binding (tested: 3 µg/ml (highest concentration))”. In addition, the EC50 is 0.016 nM in assay [7]; 0.034 nM in [8]; 0.062 nM in assay [9]; 0.051 nM in assay [10]; 0.134 nM in assay [11]; 0.000172 µM in assay [15]. Also, the Kd in assay [12] came out at 0.0586 µM; in assay [13] it was 1100 µM; in [14], 0.00654 µM. In addition, the koff in assay [12] stood at 0.00288 s⁻¹; in assay [13], 0.131 s⁻¹; in assay [14] it was 0.00917 s⁻¹. The kon in [12] came to 49200 M⁻¹ s⁻¹; in assay [13], 118 M⁻¹ s⁻¹; in assay [14], 1.4e+06 M⁻¹ s⁻¹.

B7: 1C8-507 hIgG1 (antibody, V domains shown)
VH: QVQLVQSGAEVKKPGASVKVSCKASGYTFRNYVMHWVKQKPGQGLEWMGWILPYNDGTKYAQKFQGKVTMTSDKSTSTVYMELSSLTSEDTAVYYCARYDYEGSFDYWGQGTLVTVSS
VL: DIQMTQSPSSLSASVGDRVTITCRASQDISNYLNWYQQKPGKAPKLLMRYTSLLHSGVPSRFSGSGSGTDFTLTISSLEQEDFATYYCQQGNTFPPTFGGGTKVEIKR
notes: also called [92]; hu1C8-507
With B7, the binding result in [6] is reported as “no binding (tested: 3 µg/ml (highest concentration))”. Further, the EC50 in assay [7] came out at 0.038 nM; in assay [8], 0.011 nM; in assay [9], 0.087 nM; in [10], 0.021 nM; in assay [11], 0.095 nM; in assay [15], 0.000136 µM. The figures for the Kd in assay [12], in [13] and in [14] were 0.0591 µM, 0.61 µM and 0.0217 µM, respectively. Further, the figures for the koff in assay [12], in assay [13] and in assay [14] were 0.00172 s⁻¹, 0.163 s⁻¹ and 0.0354 s⁻¹, respectively. Besides, the kon in [12] came to 29200 M⁻¹ s⁻¹; in [13], 267000 M⁻¹ s⁻¹; in assay [14], 1.63e+06 M⁻¹ s⁻¹.

B8: 539-SP5-D7 (antibody produced by the hybridoma) (antibody, V domains shown)
VH: EVMLVDSGGNLVKPGGSLKLSCAASGFTFSNYVISWVRQTPEKRLEWVATISTVGTNTYYPDSVRGRFTISRDNAENTLYLQMSSLRSEDTAIYYCSRHKYGYDDPSYAMDYWGQGTSVTVSS
VL: QLVLTQSSSASFSLGASAKLTCTLSSQHSTYTIEWYQQQPLKPPKYVMELKKDGSHSTGDGIPDRFSGSSSGADRYLSISNIQAEDEAIYICGVGDTVKEQFVYVFGGGTKVTVL
notes: as for B1
Turning to B8, the “ELISA values (OD 450 nm)” value was 0.817 OD in assay [1] and 0.252 OD in [2]. This molecule gave an EC50 in assay [4] of 0.0335 µg/mL. Moreover, in [5], the “% Parent (percent positive cells)” value worked out at 76.2%.
